# Source: article PMC8379176 (Nature Communications, 2021)
# How the values were obtained:
# Test in all cases: AlphaScreen or HTRF; saturation binding on HEK293 cells transfected with SNAP-ghrelin receptor (WT or mutants) labelled with SNAP-Lumi4-Tb; increasing concentrations of ghrelin-A2 in the presence or absence of 10 uM unlabeled ghrelin, 1 h at R.T.; HTRF ratio 665 nm/620 nm; one Kd for each of three experiments
# [1] = target: N-terminal-SNAP-tagged ghrelin receptor F312A (human) (UniProt Q92847)
# [2] = target: N-terminal-SNAP-tagged ghrelin receptor, wild type (human) (UniProt Q92847)
# [3] = target: N-terminal-SNAP-tagged ghrelin receptor Q302A (human) (UniProt Q92847)
substance,measurement,setting,value
ghrelin-A2 (full-length ghrelin labeled with the dye A2 on an additional cysteine at the C-terminal end) (peptide),Kd,[1],78 nM
same,Kd,[2],11 nM
same,Kd,[3],> 500 nM
